According to PMC7177284, “A Coil-to-Helix Transition Serves as a Binding Motif for hSNF5 and BAF155 Interaction” (International Journal of Molecular Sciences, 2020):

What was measured:
[1] = molecular target: BAF155^SWIRM (SWIRM domain of human BAF155, residues 449–546) (human) (UniProt Q92922); test: ITC; VP-ITC, 25 °C, 25 mM sodium phosphate, 100 mM NaCl, 1 mM TCEP, pH 7.0; typically 160 µM hSNF5 injected into 10 µM BAF155^SWIRM or mutant in the cell; single-site model
[2] = molecular target: T1, BAF155^SWIRM (SWIRM domain of human BAF155, residues 449–546) (human, UniProt Q92922 449-546); test: as above; conditions: both partners purified
T1 construct: human BAF155, SWIRM domain, residues 449-546; 15N- or 13C,15N-labelled for the NMR experiments; also called BAF155/SRG3; source: E. coli BL21 (DE3), purified (Ni-NTA, TEV cleavage, Superdex 200); not shown: His6, N-terminal, cleaved
T1 sequence (Q92922 449-546): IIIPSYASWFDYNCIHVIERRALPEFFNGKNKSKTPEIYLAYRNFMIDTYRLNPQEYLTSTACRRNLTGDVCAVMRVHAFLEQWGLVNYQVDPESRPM

[3] = molecular target: T2, BAF155^SWIRM N476A/N479A mutant (human, UniProt Q92922 449-546, N476A | N479A); test: as above; conditions: both partners purified
T2 construct: human BAF155, SWIRM domain, residues 449-546, N476A and N479A; PDB 6KZ7 holds the wild-type parent of the same limits; source: E. coli BL21 (DE3), purified (Ni-NTA, TEV cleavage, Superdex 200); not shown: His6, N-terminal, cleaved
T2 sequence (Q92922 449-546 N476A/N479A): as the sequence (Q92922 449-546) above, with N28A, N31A counted along it

[4] = molecular target: T1, BAF155^SWIRM (SWIRM domain of human …); test: as above; conditions: both partners purified; remark: listed apart in the source
[5] = molecular target: T1, BAF155^SWIRM (SWIRM domain of human …); test: SEC-MALS; Wyatt WTC-030S5 column, 0.5 mL/min, 10 mM HEPES pH 7.0, 100 mM NaCl, 2 mM DTT; hSNF5^171–258 0.2 mM and BAF155^SWIRM 0.3 mM, individually or together; conditions: both partners purified

Sequence of BAF155^SWIRM (SWIRM domain of human BAF155, residues 449–546) (human) (Q92922 449-546): as the sequence (Q92922 449-546) above

hSNF5^SFH1/171–253 (chimeric mutant with the N-terminal tail region from the yeast protein SFH1) (from UniProt Q12824 185-253) (domain or fragment)
Kd [1]: 0.48 µM
dH [1]: -56.1 kJ/mol

B1: hSNF5^181–253 (domain or fragment, human, UniProt Q12824 181-253, looked up)
chain: SQPEVLVPIRLDMEIDGQKLRDAFTWNMNEKLMTPEMFSEILCDDLDLNPLTFVPAIASAIRQQIESYPTDSI
notes: human SNF5 (hSNF5), residues 181-253; source: E. coli BL21 (DE3), purified (Ni-NTA, TEV cleavage, Superdex 200); not shown: His6, N-terminal, cleaved
Kd [2]: 0.3 ± 0.07 µM
dH [2]: -54 ± 1.67 kJ/mol

B2: hSNF5^174–253 (domain or fragment, human, UniProt Q12824 174-253, looked up)
chain: AVIHENASQPEVLVPIRLDMEIDGQKLRDAFTWNMNEKLMTPEMFSEILCDDLDLNPLTFVPAIASAIRQQIESYPTDSI
notes: human SNF5 (hSNF5), residues 174-253; source: E. coli BL21 (DE3), purified (Ni-NTA, TEV cleavage, Superdex 200); not shown: His6, N-terminal, cleaved
Kd [2]: 0.11 ± 0.03 µM
dH [2]: -66.1 ± 2.09 kJ/mol

B3: hSNF5^183–253 (domain or fragment, human, UniProt Q12824 183-253, looked up)
chain: PEVLVPIRLDMEIDGQKLRDAFTWNMNEKLMTPEMFSEILCDDLDLNPLTFVPAIASAIRQQIESYPTDSI
notes: human SNF5 (hSNF5), residues 183-253; also called whole αN helix-deletion mutant; source: E. coli BL21 (DE3), purified (Ni-NTA, TEV cleavage, Superdex 200); not shown: His6, N-terminal, cleaved
Kd [2]: 0.29 ± 0.08 µM
dH [2]: -78.2 ± 3.35 kJ/mol

B4: hSNF5^171–253 (domain or fragment, human, UniProt Q12824 171-253, looked up)
chain: HDPAVIHENASQPEVLVPIRLDMEIDGQKLRDAFTWNMNEKLMTPEMFSEILCDDLDLNPLTFVPAIASAIRQQIESYPTDSI
notes: source: E. coli BL21 (DE3), purified (Ni-NTA, TEV cleavage, Superdex 200); not shown: His6, N-terminal, cleaved
Kd [2]: 0.11 ± 0.02 µM
dH [2]: -82.4 ± 1.26 kJ/mol
Kd [3]: 0.14 ± 0.03 µM
dH [3]: -74.1 ± 2.93 kJ/mol
stoichiometry N [4]: 1

B5: hSNF5^171–253 with the E184A mutation (domain or fragment, human, UniProt Q12824 171-253, looked up)
chain: HDPAVIHENASQPAVLVPIRLDMEIDGQKLRDAFTWNMNEKLMTPEMFSEILCDDLDLNPLTFVPAIASAIRQQIESYPTDSI
notes: as for B4
Kd [2]: 0.37 ± 0.1 µM
dH [2]: -46.9 ± 1.67 kJ/mol

B6: hSNF5^171–258 (N- and C-terminal elongated hSNF5 RPT1 domain) (domain or fragment, human, UniProt Q12824 171-258, looked up)
chain: HDPAVIHENASQPEVLVPIRLDMEIDGQKLRDAFTWNMNEKLMTPEMFSEILCDDLDLNPLTFVPAIASAIRQQIESYPTDSILEDQS
notes: 15N- or 13C,15N-labelled for the NMR experiments; modified pET21b vector; also called human SNF5; SNF5/INI1/BAF47; source: E. coli BL21 (DE3), purified (Ni-NTA, TEV cleavage, Superdex 200); not shown: His6, N-terminal, cleaved
stoichiometry N [5]: 1

B7: hSNF5^186–253 (domain or fragment, human, UniProt Q12824 186-253, looked up)
chain: LVPIRLDMEIDGQKLRDAFTWNMNEKLMTPEMFSEILCDDLDLNPLTFVPAIASAIRQQIESYPTDSI
notes: human SNF5 (hSNF5), residues 186-253; source: E. coli BL21 (DE3), purified (Ni-NTA, TEV cleavage, Superdex 200); not shown: His6, N-terminal, cleaved
Kd [2]: 0.76 ± 0.08 µM
dH [2]: -66.9 ± 1.26 kJ/mol

B8: hSNF5^179–253 (domain or fragment, human, UniProt Q12824 179-253, looked up)
chain: NASQPEVLVPIRLDMEIDGQKLRDAFTWNMNEKLMTPEMFSEILCDDLDLNPLTFVPAIASAIRQQIESYPTDSI
notes: human SNF5 (hSNF5), residues 179-253; source: E. coli BL21 (DE3), purified (Ni-NTA, TEV cleavage, Superdex 200); not shown: His6, N-terminal, cleaved
Kd [2]: 0.3 ± 0.05 µM
dH [2]: -87.9 ± 2.51 kJ/mol
